According to publication PMC9482650, “Quantitative fragmentomics allow affinity mapping of interactomes” (Nature Communications, 2022):

How the values were obtained:
Assay in all cases: holdup assay
Design in all cases: key: below the threshold = too weak to quantify, mostly under pKd 3.1 to 4
AHNAK1, Q09666 = molecular target: AHNAK1, Q09666
APBA2_2, Q99767 = molecular target: T1, APBA2_2, Q99767
T1 sequence (Q99767 654-744, limits assumed, looked up): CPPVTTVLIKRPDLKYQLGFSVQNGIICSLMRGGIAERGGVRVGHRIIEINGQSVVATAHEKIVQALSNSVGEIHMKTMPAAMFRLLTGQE

APBA3_1, O96018 = molecular target: T2, APBA3_1, O96018
T2 sequence (O96018 389-490, limits assumed, looked up): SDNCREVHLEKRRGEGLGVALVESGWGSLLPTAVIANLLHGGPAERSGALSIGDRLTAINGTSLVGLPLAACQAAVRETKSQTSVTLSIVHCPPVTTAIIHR

ARHGEF12, Q9NZN5-2 = molecular target: ARHGEF12, Q9NZN5-2
ARHGEF12, Q9NZN5-2, sequence (Q9NZN5 other isoform, or with tags, fused parts or gaps): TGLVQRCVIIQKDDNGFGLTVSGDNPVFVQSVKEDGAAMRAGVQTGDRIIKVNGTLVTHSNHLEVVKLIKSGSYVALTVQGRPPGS

DLG1_1, Q12959 = molecular target: DLG1_1, Q12959
DLG2_2, Q15700 = molecular target: DLG2_2, Q15700
DLG2_2, Q15700, sequence (Q15700 189-283): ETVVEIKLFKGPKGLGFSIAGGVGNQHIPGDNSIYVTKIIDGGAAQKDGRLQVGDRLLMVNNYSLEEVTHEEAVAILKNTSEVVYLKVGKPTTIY

DLG4_2, P78352 = molecular target: DLG4_2, P78352
DLG4_2, P78352, sequence (P78352 155-259): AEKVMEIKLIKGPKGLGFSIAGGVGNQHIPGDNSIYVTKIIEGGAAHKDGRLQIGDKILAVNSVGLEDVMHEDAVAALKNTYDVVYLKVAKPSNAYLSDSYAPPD

DLG4_3, P78352 = molecular target: DLG4_3, P78352
DLG4_3, P78352, sequence (P78352 306-403): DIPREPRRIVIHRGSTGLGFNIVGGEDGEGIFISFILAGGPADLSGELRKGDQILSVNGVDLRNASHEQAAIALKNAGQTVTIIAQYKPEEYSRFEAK

FRMPD3, Q5JV73 = molecular target: FRMPD3, Q5JV73
FRMPD3, Q5JV73, sequence (Q5JV73 12-100): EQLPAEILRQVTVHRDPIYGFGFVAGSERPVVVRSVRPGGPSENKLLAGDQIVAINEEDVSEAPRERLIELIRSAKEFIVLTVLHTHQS

GRIP1_4, Q9Y3R0 = molecular target: T3, GRIP1_4, Q9Y3R0
T3 sequence (Q9Y3R0 467-571, limits assumed, looked up): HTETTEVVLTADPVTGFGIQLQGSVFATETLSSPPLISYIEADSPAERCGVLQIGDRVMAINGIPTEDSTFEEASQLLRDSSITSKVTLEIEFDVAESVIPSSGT

GRIP2_7, Q9C0E4 = molecular target: GRIP2_7, Q9C0E4
GRIP2_7, Q9C0E4, sequence (Q9C0E4 934-1023): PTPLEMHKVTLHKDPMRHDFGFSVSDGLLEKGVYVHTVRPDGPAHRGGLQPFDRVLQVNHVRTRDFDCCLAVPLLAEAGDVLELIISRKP

HTRA1, Q92743 = molecular target: HTRA1, Q92743
HTRA1, Q92743, sequence (Q92743 360-477): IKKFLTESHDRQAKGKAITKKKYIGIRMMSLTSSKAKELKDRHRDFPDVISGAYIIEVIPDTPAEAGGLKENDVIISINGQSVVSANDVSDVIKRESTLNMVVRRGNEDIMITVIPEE

HTRA3, P83110 = molecular target: T4, HTRA3, P83110
T4 sequence (P83110 354-453, limits assumed, looked up): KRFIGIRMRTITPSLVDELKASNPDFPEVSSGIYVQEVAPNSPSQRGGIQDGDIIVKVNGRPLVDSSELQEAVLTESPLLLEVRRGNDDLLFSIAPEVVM

IL16_1, Q14005 = molecular target: IL16_1, Q14005
IL16_1, Q14005, sequence (Q14005 210-306): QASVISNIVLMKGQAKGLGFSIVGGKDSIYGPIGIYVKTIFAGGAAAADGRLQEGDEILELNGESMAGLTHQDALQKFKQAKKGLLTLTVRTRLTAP

IL16_4, Q14005 = molecular target: IL16_4, Q14005
IL16_4, Q14005, sequence (Q14005 1229-1329): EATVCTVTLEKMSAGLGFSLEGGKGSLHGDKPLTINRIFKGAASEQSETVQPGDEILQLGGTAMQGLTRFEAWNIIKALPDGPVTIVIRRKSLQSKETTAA

Inadl_10, Q8NI35 = molecular target: Inadl_10, Q8NI35
Inadl_10, Q8NI35, sequence (Q8NI35 1673-1763): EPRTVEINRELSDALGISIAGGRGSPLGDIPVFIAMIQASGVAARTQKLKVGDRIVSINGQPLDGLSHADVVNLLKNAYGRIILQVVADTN

Inadl_5, Q8NI35 = molecular target: Inadl_5, Q8NI35
Inadl_5, Q8NI35, sequence (Q8NI35 673-780): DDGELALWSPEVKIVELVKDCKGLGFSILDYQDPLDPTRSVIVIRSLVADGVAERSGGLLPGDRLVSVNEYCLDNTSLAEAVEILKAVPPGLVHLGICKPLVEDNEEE

LAP2, Q96RT1 = molecular target: LAP2, Q96RT1
LAP2, Q96RT1, sequence (Q96RT1 other isoform, or with tags, fused parts or gaps): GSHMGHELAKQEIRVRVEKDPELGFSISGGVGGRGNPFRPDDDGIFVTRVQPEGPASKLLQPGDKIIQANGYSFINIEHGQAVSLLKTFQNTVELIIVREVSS

LDB3, O75112 = molecular target: LDB3, O75112
LDB3, O75112, sequence (O75112 1-94): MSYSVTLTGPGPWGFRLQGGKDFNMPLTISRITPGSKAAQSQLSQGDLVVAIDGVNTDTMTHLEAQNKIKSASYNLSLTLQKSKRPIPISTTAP

LIN7B, Q9HAP6 = molecular target: T5, LIN7B, Q9HAP6
T5 sequence (Q9HAP6 88-185, limits assumed, looked up): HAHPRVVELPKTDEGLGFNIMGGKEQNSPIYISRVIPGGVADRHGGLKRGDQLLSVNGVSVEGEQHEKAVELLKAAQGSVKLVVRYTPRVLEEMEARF

LIN7C, Q9NUP9 = molecular target: T6, LIN7C, Q9NUP9
T6 sequence (Q9NUP9 88-185, limits assumed, looked up): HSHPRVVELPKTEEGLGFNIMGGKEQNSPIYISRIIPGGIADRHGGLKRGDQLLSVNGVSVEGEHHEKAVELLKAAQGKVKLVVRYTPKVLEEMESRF

LNX1_3, Q8TBB1 = molecular target: LNX1_3, Q8TBB1
LNX1_3, Q8TBB1, sequence (Q8TBB1 500-596): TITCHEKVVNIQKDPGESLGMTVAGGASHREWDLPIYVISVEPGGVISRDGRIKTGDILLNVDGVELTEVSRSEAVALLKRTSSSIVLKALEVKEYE

MAGI2_3, Q86UL8 = molecular target: MAGI2_3, Q86UL8
MAGI2_3, Q86UL8, sequence (Q86UL8 600-682): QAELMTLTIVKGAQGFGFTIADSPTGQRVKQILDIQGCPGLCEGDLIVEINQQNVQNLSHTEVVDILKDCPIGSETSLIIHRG

MAGI2_4, Q86UL8 = molecular target: MAGI2_4, Q86UL8
MAGI2_4, Q86UL8, sequence (Q86UL8 772-865): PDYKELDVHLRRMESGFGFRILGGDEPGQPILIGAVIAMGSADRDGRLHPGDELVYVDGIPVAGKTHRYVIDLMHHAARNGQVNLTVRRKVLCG

MPDZ_5, O75970 = molecular target: T7, MPDZ_5, O75970
T7 sequence (O75970 695-796, limits assumed, looked up): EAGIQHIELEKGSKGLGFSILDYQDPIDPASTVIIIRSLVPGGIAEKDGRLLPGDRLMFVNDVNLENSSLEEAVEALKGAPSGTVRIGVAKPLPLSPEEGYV

NHERF3_3, Q5T2W1 = molecular target: T8, NHERF3_3, Q5T2W1
T8 sequence (Q5T2W1 238-333, limits assumed, looked up): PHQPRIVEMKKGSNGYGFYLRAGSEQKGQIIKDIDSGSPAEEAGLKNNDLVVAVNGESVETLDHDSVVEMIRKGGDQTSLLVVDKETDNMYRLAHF

PDLIM1, O00151 = molecular target: PDLIM1, O00151
PDLIM1, O00151, sequence (O00151 1-87): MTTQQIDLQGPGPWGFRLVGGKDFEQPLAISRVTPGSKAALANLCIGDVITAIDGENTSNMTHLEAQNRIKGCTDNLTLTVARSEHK

PDZD7_3, Q9H5P4 = molecular target: T9, PDZD7_3, Q9H5P4
T9 sequence (Q9H5P4 857-944, limits assumed, looked up): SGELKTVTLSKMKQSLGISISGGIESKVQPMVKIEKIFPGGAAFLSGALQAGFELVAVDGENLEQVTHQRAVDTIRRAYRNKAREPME

PDZRN4_1, Q6ZMN7 = molecular target: PDZRN4_1, Q6ZMN7
PDZRN4_1, Q6ZMN7, sequence (Q6ZMN7 213-318): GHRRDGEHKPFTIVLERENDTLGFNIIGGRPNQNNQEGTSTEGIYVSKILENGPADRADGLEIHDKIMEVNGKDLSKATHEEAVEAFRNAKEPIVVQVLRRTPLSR

[1] = plain residues with an end cap or a label only (N-terminal biotin on a linker: ado-ado)
[2] = modified: phospho on T at position -2 from the C-terminal residue

Measured: pKd

AHNAK1, Q09666, sequence (Q09666 4-100): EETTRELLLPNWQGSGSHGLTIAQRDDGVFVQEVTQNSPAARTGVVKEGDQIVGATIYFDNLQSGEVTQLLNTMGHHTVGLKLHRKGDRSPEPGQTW

PELESKESVL [SLC1A4, P43007]
3.51: DLG1_1, Q12959; [1]
3.71: DLG2_2, Q15700; [1]
3.91: DLG4_2, P78352; [1]
3.9: IL16_1, Q14005; [1]
4.8: PDZD7_3, Q9H5P4; [1]
3.55: LAP2, Q96RT1; [1]
4.66: PDZRN4_1, Q6ZMN7; [1]
4.28: LIN7C, Q9NUP9; [1]
3.59: PDLIM1, O00151; [1]
below the threshold: AHNAK1, Q09666; [1] | APBA2_2, Q99767; [1] | APBA3_1, O96018; [1] | DLG4_3, P78352; [1] | FRMPD3, Q5JV73; [1] | GRIP1_4, Q9Y3R0; [1] | GRIP2_7, Q9C0E4; [1] | HTRA3, P83110; [1] | IL16_4, Q14005; [1] | Inadl_10, Q8NI35; [1] | Inadl_5, Q8NI35; [1] | LDB3, O75112; [1] | LIN7B, Q9HAP6; [1] | LNX1_3, Q8TBB1; [1] | MAGI2_3, Q86UL8; [1] | MAGI2_4, Q86UL8; [1] | MPDZ_5, O75970; [1] | NHERF3_3, Q5T2W1; [1]
4.53: ARHGEF12, Q9NZN5-2; [1]
4.41: HTRA1, Q92743; [1]

EEDTAEKDEL [HSPA5, P11021]
3.51: IL16_4, Q14005; [1]
3.79: DLG1_1, Q12959; [1]
3.55: MAGI2_4, Q86UL8; [1]
3.56: APBA2_2, Q99767; [1]
3.5: DLG4_2, P78352; [1]
below the threshold: AHNAK1, Q09666; [1] | APBA3_1, O96018; [1] | ARHGEF12, Q9NZN5-2; [1] | DLG2_2, Q15700; [1] | DLG4_3, P78352; [1] | FRMPD3, Q5JV73; [1] | GRIP1_4, Q9Y3R0; [1] | GRIP2_7, Q9C0E4; [1] | HTRA1, Q92743; [1] | HTRA3, P83110; [1] | IL16_1, Q14005; [1] | Inadl_10, Q8NI35; [1] | Inadl_5, Q8NI35; [1] | LAP2, Q96RT1; [1] | LIN7B, Q9HAP6; [1] | LIN7C, Q9NUP9; [1] | LNX1_3, Q8TBB1; [1] | MAGI2_3, Q86UL8; [1] | MPDZ_5, O75970; [1] | NHERF3_3, Q5T2W1; [1] | PDLIM1, O00151; [1] | PDZD7_3, Q9H5P4; [1] | PDZRN4_1, Q6ZMN7; [1]
3.68: LDB3, O75112; [1]

LSEFKAMDSF [CTNNA2, P26232]
below the threshold: AHNAK1, Q09666; [1] | APBA2_2, Q99767; [1] | APBA3_1, O96018; [1] | ARHGEF12, Q9NZN5-2; [1] | DLG1_1, Q12959; [1] | DLG2_2, Q15700; [1] | DLG4_2, P78352; [1] | DLG4_3, P78352; [1] | FRMPD3, Q5JV73; [1] | GRIP1_4, Q9Y3R0; [1] | GRIP2_7, Q9C0E4; [1] | HTRA1, Q92743; [1] | HTRA3, P83110; [1] | IL16_1, Q14005; [1] | IL16_4, Q14005; [1] | Inadl_10, Q8NI35; [1] | Inadl_5, Q8NI35; [1] | LAP2, Q96RT1; [1] | LDB3, O75112; [1] | LIN7C, Q9NUP9; [1] | LNX1_3, Q8TBB1; [1] | MAGI2_3, Q86UL8; [1] | MAGI2_4, Q86UL8; [1] | MPDZ_5, O75970; [1] | NHERF3_3, Q5T2W1; [1] | PDLIM1, O00151; [1] | PDZD7_3, Q9H5P4; [1] | PDZRN4_1, Q6ZMN7; [1]
3.85: LIN7B, Q9HAP6; [1]

SMLNRRTTPV [CACNG4, Q9UBN1]
4.36: HTRA1, Q92743; [1]
4.42: DLG1_1, Q12959; [1]
4.88: DLG4_2, P78352; [1]
3.49: LAP2, Q96RT1; [1]
3.75: PDZRN4_1, Q6ZMN7; [1]
4.51: DLG2_2, Q15700; [1]
4.85: DLG4_3, P78352; [1]
3.52: MAGI2_4, Q86UL8; [1]
below the threshold: AHNAK1, Q09666; [1] | APBA2_2, Q99767; [1] | APBA3_1, O96018; [1] | FRMPD3, Q5JV73; [1] | GRIP1_4, Q9Y3R0; [1] | GRIP2_7, Q9C0E4; [1] | HTRA3, P83110; [1] | IL16_1, Q14005; [1] | IL16_4, Q14005; [1] | Inadl_10, Q8NI35; [1] | Inadl_5, Q8NI35; [1] | LDB3, O75112; [1] | LIN7B, Q9HAP6; [1] | LIN7C, Q9NUP9; [1] | LNX1_3, Q8TBB1; [1] | MAGI2_3, Q86UL8; [1] | MPDZ_5, O75970; [1] | NHERF3_3, Q5T2W1; [1] | PDLIM1, O00151; [1]
4.07: PDZD7_3, Q9H5P4; [1]
3.86: ARHGEF12, Q9NZN5-2; [1]

RRVRKLPSTTL [RPS6KA1_-2P, Q15418]
3.58: DLG1_1, Q12959; [2]
below the threshold: AHNAK1, Q09666; [2] | APBA2_2, Q99767; [2] | APBA3_1, O96018; [2] | ARHGEF12, Q9NZN5-2; [2] | DLG2_2, Q15700; [2] | DLG4_2, P78352; [2] | DLG4_3, P78352; [2] | FRMPD3, Q5JV73; [2] | GRIP1_4, Q9Y3R0; [2] | GRIP2_7, Q9C0E4; [2] | HTRA3, P83110; [2] | IL16_1, Q14005; [2] | IL16_4, Q14005; [2] | Inadl_10, Q8NI35; [2] | Inadl_5, Q8NI35; [2] | LAP2, Q96RT1; [2] | LIN7B, Q9HAP6; [2] | LIN7C, Q9NUP9; [2] | LNX1_3, Q8TBB1; [2] | MAGI2_3, Q86UL8; [2] | MAGI2_4, Q86UL8; [2] | MPDZ_5, O75970; [2] | NHERF3_3, Q5T2W1; [2] | PDLIM1, O00151; [2] | PDZRN4_1, Q6ZMN7; [2]
3.5: PDZD7_3, Q9H5P4; [2]
3.65: HTRA1, Q92743; [2]
3.47: LDB3, O75112; [2]
